Assay results published in patent US20230366033A1, “METHODS FOR TREATING CANCERS WITH INHIBITORS TARGETING THE ROLE OF GRB2 IN DNA REPAIR” (Board of Regents, The University of Texas System, priority 2020, published 2023).

Columns and labels:
[1] = biological target: GRB2 K109R mutant, bacterially expressed and purified (UniProt P62993); assay: MST, 100 nM Atto488-labelled K109R GRB2, peptide titrated
[2] = biological target: GRB2-SH2 domain, purified, Atto488-labelled (UniProt P62993); assay: MST; 100 nM Atto488-labelled GRB2-SH2 domain, peptide titrated; pEGFR phosphopeptide, comparator; cited to a figure and Ahmed et al., 2015
[3] = biological target: CBLL1 E3 ubiquitin ligase, endogenous, in HEK293T cells (UniProt Q75N03); assay: GRB2 immunoprecipitation-mass spectrometry in HEK293T cells (mean of three data sets) [panel G]
HERC1 (human) = HERC1 (human) (UniProt Q15751); assay: as above
[4] = biological target: RING2 E3 ubiquitin ligase, endogenous, in HEK293T cells (UniProt Q99496); assay: as above
[5] = biological target: Histone H2AX, endogenous, in HEK293T cell extracts (UniProt P16104); assay: Strep-Tactin purification of Strep-GRB2 from HEK293T nuclear extracts, mass spectrometry (mean of three data sets) [panel A]

Chain of HERC1 (human) (Q15751 whole entry): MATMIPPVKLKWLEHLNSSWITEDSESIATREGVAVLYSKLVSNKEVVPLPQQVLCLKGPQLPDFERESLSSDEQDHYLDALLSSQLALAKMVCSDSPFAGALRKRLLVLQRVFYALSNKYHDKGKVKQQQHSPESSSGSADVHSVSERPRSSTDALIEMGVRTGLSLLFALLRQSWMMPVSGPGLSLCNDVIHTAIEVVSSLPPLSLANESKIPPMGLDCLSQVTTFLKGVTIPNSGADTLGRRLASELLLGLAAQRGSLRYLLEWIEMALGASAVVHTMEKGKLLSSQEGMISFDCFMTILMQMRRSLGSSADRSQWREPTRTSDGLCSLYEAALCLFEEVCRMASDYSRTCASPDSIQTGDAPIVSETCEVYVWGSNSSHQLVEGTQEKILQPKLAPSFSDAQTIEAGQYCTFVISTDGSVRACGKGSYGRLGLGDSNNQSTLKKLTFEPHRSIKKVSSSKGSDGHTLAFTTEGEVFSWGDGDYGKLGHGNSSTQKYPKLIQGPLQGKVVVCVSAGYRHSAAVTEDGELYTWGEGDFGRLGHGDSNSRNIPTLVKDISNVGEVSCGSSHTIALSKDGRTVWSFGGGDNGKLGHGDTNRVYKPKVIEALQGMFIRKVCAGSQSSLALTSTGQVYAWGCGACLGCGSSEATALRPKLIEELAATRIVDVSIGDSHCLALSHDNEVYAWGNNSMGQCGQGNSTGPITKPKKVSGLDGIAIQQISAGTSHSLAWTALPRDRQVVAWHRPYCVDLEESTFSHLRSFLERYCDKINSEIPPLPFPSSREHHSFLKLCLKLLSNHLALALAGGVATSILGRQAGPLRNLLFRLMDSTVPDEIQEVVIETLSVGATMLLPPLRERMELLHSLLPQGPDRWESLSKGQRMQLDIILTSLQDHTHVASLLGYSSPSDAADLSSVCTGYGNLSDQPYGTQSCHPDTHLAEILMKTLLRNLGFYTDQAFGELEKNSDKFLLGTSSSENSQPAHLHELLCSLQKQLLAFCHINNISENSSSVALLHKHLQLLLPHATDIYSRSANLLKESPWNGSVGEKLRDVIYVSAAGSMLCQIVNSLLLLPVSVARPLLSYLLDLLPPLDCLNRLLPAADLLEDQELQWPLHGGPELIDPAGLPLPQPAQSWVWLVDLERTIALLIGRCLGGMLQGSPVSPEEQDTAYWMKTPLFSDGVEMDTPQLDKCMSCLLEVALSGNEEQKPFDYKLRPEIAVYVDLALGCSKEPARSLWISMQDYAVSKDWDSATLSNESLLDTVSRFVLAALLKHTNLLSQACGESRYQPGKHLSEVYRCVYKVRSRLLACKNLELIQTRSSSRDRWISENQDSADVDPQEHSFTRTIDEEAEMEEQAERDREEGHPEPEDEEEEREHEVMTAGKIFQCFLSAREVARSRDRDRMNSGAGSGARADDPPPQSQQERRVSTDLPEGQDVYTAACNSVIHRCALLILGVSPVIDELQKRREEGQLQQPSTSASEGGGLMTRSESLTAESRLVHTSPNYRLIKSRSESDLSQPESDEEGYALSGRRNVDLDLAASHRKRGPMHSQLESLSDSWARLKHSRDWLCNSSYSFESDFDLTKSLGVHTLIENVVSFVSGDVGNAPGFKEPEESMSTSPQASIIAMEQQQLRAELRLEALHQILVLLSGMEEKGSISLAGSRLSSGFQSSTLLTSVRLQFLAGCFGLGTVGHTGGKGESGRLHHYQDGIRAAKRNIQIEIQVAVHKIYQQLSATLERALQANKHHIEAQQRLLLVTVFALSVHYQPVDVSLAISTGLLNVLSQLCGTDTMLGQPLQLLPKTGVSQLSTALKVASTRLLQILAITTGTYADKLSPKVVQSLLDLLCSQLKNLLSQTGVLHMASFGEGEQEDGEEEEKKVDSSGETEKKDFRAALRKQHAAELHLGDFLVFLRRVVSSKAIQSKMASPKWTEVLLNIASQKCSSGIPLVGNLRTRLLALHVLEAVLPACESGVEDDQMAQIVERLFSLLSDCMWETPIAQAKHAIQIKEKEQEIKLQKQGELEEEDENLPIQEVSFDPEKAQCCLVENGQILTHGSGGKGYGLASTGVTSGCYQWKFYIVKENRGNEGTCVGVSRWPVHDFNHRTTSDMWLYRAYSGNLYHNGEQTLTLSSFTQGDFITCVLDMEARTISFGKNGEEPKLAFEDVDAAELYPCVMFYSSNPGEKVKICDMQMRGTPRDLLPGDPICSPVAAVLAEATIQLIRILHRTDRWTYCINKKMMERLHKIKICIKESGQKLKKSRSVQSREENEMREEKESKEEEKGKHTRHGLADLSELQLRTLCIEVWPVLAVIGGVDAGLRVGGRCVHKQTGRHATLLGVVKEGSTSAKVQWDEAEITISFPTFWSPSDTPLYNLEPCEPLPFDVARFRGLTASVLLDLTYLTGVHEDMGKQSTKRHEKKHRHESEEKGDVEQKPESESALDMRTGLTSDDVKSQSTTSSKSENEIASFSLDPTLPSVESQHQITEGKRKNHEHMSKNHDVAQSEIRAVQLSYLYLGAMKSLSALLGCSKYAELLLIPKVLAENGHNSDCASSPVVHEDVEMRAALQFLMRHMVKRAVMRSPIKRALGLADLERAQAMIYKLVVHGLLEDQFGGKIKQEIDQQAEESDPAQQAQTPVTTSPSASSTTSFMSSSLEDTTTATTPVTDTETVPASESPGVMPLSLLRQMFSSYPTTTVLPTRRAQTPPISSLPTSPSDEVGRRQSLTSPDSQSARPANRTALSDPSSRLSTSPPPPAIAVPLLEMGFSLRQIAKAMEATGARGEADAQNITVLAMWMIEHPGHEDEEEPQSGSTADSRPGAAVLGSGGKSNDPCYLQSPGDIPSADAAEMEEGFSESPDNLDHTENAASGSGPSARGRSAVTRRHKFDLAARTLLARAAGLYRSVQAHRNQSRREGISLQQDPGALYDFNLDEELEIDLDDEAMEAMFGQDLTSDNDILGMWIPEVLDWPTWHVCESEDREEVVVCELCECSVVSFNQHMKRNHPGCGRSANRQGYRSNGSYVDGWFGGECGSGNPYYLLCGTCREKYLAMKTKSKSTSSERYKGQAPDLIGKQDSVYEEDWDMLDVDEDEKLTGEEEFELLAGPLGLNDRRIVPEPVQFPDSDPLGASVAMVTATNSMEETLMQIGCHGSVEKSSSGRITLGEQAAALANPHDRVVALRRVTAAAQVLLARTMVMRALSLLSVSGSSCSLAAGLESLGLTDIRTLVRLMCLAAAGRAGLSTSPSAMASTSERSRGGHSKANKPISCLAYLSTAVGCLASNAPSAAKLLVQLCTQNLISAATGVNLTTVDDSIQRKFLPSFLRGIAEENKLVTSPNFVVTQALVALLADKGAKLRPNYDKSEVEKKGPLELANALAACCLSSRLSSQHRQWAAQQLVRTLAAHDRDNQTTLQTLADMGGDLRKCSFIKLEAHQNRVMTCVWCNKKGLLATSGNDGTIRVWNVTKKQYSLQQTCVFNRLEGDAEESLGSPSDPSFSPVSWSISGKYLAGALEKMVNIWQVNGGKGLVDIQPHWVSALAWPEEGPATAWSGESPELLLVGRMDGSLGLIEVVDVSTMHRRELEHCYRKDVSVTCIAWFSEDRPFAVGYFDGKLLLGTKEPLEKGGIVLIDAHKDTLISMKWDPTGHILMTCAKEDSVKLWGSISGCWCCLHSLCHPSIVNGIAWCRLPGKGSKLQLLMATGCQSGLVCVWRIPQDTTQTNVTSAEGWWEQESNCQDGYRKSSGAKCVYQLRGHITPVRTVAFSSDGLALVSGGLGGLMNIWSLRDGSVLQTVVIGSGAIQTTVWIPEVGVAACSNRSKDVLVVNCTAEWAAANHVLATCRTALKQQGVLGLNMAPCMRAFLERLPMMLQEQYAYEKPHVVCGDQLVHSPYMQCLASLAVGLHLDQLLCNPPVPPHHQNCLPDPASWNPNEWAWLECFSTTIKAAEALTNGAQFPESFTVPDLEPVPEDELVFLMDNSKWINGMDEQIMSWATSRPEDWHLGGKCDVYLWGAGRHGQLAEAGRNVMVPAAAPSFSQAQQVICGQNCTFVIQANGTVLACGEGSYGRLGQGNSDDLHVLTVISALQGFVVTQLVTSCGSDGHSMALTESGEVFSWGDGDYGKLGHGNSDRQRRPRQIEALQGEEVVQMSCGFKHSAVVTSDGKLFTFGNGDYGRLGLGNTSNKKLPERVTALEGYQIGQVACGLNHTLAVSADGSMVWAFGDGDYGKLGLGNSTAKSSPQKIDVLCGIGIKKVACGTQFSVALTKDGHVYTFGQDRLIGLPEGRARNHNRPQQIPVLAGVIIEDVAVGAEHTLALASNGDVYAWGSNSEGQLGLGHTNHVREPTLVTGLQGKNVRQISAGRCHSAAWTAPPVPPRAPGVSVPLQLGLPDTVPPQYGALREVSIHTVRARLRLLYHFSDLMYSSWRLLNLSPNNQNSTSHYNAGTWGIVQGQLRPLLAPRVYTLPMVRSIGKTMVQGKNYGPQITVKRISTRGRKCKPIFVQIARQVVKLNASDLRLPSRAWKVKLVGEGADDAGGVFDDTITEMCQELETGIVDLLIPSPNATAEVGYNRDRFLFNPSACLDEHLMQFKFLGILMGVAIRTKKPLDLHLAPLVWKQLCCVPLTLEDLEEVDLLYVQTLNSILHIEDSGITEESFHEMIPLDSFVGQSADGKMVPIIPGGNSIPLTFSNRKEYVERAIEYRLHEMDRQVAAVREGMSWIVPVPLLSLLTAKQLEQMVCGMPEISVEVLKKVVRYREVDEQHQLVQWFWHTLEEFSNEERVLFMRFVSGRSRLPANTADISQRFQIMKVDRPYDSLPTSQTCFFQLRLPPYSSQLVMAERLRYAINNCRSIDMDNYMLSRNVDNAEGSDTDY
Chain of RING2 E3 ubiquitin ligase, endogenous, in HEK293T cells (Q99496 2-336 limits assumed): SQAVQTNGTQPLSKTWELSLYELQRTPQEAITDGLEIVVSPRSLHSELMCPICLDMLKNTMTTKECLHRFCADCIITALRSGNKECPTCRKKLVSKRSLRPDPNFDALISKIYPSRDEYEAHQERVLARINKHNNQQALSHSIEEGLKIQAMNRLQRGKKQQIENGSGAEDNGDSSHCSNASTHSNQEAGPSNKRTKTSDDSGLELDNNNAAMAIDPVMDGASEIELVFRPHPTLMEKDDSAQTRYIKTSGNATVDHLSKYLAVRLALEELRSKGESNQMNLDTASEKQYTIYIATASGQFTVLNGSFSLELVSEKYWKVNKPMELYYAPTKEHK

| Kd [1] | Kd [2] | Coverage(%) [3] | Peptides [3] | Coverage(%) (HERC1 (human)) | Peptides (HERC1 (human)) | Coverage(%) [4] | Peptides [4] | Coverage(%) [5] | Peptides [5] | Substance |
| --- | --- | --- | --- | --- | --- | --- | --- | --- | --- | --- |
| 2.6 µM | 7.2 µM | – | – | – | – | – | – | – | – | Phosphorylated EGFR synthetic peptide FLPVPE(pY)INQSVPKR |
| – | – | 3% | 1 peptides | 0% | 1 peptides | 15% | 4 peptides | 71% | 16 peptides | Strep-tagged wild-type GRB2 expressed in cells (HEK293T; reconstituted GRB2-KO cells) (from UniProt P62993 1-217) |
